Laboratory results from PMC8927045, “MAP3K1 Variant Causes Hyperactivation of Wnt4/β-Catenin/FOXL2 Signaling Contributing to 46,XY Disorders/Differences of Sex Development” (Frontiers in Genetics, 2022).

Tests used:
[1] = molecular target: T1, RHOA-LgBiT-N (RhoA fused to LgBiT) (human (from the RefSeq entry NM_001664; …, UniProt P61586 1-193); assay: split reporter (BiFC, NanoBiT); NanoBiT in HEK293T cells co-transfected with SmBiT and LgBiT fusion plasmids (500 ng DNA in all, 24-well plate); 24 h after transfection medium replaced by OPTI-MEM, substrate added, signal read for 30 min; negative control: SmBiT-MAP3K1 plasmid alone; conditions: partners not purified
T1 construct: RhoA, RHOA gene (NM_001664); On which end of RhoA the LgBiT stands is not clear from the two names used; also called LgBit-RhoA-N; source: HEK293T, transfected, in cells

RHOA-3×Flag = molecular target: T2, RHOA-3×Flag (human (from the RefSeq entry NM_001664; …, UniProt P61586 1-193); assay: co-IP; HEK293T cells co-transfected with MAP3K1-3×HA and RHOA-3×Flag; 48 h after transfection lysed in modified RIPA buffer; anti-Flag or anti-HA magnetic beads overnight at 4°C; blot with anti-HA or anti-FLAG; ratio of Co-IP to IP band intensity; conditions: partners not purified
T2 construct: RhoA, RHOA gene (NM_001664) cloned into p3×Flag-CMV-14; also called RhoA-Flag; source: HEK293T, transfected, in lysate
T2 sequence (P61586 whole entry): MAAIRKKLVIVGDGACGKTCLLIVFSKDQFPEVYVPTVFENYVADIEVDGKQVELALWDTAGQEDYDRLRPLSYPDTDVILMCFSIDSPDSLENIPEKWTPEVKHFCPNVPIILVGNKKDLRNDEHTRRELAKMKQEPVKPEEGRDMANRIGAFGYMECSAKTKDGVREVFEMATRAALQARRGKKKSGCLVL

T1 sequence (P61586 whole entry, the tested form may be a part): as the sequence (P61586 whole entry) above

| fold of the wild type's NanoBiT signal [1] | fold of the wild type's ratio of Co-IP to IP signal (RHOA-3×Flag) | Binder |
| --- | --- | --- |
| 3.19 ± 0.18 fold of wild type | – | MAP3K1^R186G-SmBiT-C (R186G variant of MAP3K1 fused to SmBiT) (enzyme, human, UniProt Q13233 1-1512, looked up, Same construct as m1 with the patient variant; The end of the SmBiT is not clear; also called MAP3K1-Mut; p.R186G variant; source: HEK293T, transfected, in cells) MAAAAGNRASSSGFPGARATSPEAGGGGGALKASSAPAAAAGLLREAGSGGRERADWRRRQLRKVRSVELDQLPEQPLFLAASPPASSTSPSPEPADAAGSGTGFQPVAVPPPHGAASRGGAHLTESVAAPDSGASSPAAAEPGEKRAPAAEPSPAAAPAGREMENKETLKGLHKMDDRPEERMIGEKLKATCMPAWKHEWLERRNRRGPVVVKPIPVKGDGSEMNHLAAESPGEVQASAASPASKGRRSPSPGNSPSGRTVKSESPGVRRKRVSPVPFQSGRITPPRRAPSPDGFSPYSPEETNRRVNKVMRARLYLLQQIGPNSFLIGGDSPDNKYRVFIGPQNCSCARGTFCIHLLFVMLRVFQLEPSDPMLWRKTLKNFEVESLFQKYHSRRSSRIKAPSRNTIQKFVSRMSNSHTLSSSSTSTSSSENSIKDEEEQMCPICLLGMLDEESLTVCEDGCRNKLHHHCMSIWAEECRRNREPLICPLCRSKWRSHDFYSHELSSPVDSPSSLRAAQQQTVQQQPLAGSRRNQESNFNLTHYGTQQIPPAYKDLAEPWIQVFGMELVGCLFSRNWNVREMALRRLSHDVSGALLLANGESTGNSGGSSGSSPSGGATSGSSQTSISGDVVEACCSVLSMVCADPVYKVYVAALKTLRAMLVYTPCHSLAERIKLQRLLQPVVDTILVKCADANSRTSQLSISTLLELCKGQAGELAVGREILKAGSIGIGGVDYVLNCILGNQTESNNWQELLGRLCLIDRLLLEFPAEFYPHIVSTDVSQAEPVEIRYKKLLSLLTFALQSIDNSHSMVGKLSRRIYLSSARMVTTVPHVFSKLLEMLSVSSSTHFTRMRRRLMAIADEVEIAEAIQLGVEDTLDGQQDSFLQASVPNNYLETTENSSPECTVHLEKTGKGLCATKLSASSEDISERLASISVGPSSSTTTTTTTTEQPKPMVQTKGRPHSQCLNSSPLSHHSQLMFPALSTPSSSTPSVPAGTATDVSKHRLQGFIPCRIPSASPQTQRKFSLQFHRNCPENKDSDKLSPVFTQSRPLPSSNIHRPKPSRPTPGNTSKQGDPSKNSMTLDLNSSSKCDDSFGCSSNSSNAVIPSDETVFTPVEEKCRLDVNTELNSSIEDLLEASMPSSDTTVTFKSEVAVLSPEKAENDDTYKDDVNHNQKCKEKMEAEEEEALAIAMAMSASQDALPIVPQLQVENGEDIIIIQQDTPETLPGHTKAKQPYREDTEWLKGQQIGLGAFSSCYQAQDVGTGTLMAVKQVTYVRNTSSEQEEVVEALREEIRMMSHLNHPNIIRMLGATCEKSNYNLFIEWMAGGSVAHLLSKYGAFKESVVINYTEQLLRGLSYLHENQIIHRDVKGANLLIDSTGQRLRIADFGAAARLASKGTGAGEFQGQLLGTIAFMAPEVLRGQQYGRSCDVWSVGCAIIEMACAKPPWNAEKHSNHLALIFKIASATTAPSIPSHLSPGLRDVALRCLELQPQDRPPSRELLKHPVFRTTW |
| – | 2.57 times wild type | MAP3K1^R186G-3×HA (enzyme, human, UniProt Q13233 1-1512, looked up, human MAP3K1, full-length cDNA NM_005921.2 with the patients' variant c.556A>G, cloned into pcDNA3.1(+)-3×HA; Same construct as m7 with the patient variant; also called R186G variant; source: HEK293T, transfected, in lysate) MAAAAGNRASSSGFPGARATSPEAGGGGGALKASSAPAAAAGLLREAGSGGRERADWRRRQLRKVRSVELDQLPEQPLFLAASPPASSTSPSPEPADAAGSGTGFQPVAVPPPHGAASRGGAHLTESVAAPDSGASSPAAAEPGEKRAPAAEPSPAAAPAGREMENKETLKGLHKMDDRPEERMIGEKLKATCMPAWKHEWLERRNRRGPVVVKPIPVKGDGSEMNHLAAESPGEVQASAASPASKGRRSPSPGNSPSGRTVKSESPGVRRKRVSPVPFQSGRITPPRRAPSPDGFSPYSPEETNRRVNKVMRARLYLLQQIGPNSFLIGGDSPDNKYRVFIGPQNCSCARGTFCIHLLFVMLRVFQLEPSDPMLWRKTLKNFEVESLFQKYHSRRSSRIKAPSRNTIQKFVSRMSNSHTLSSSSTSTSSSENSIKDEEEQMCPICLLGMLDEESLTVCEDGCRNKLHHHCMSIWAEECRRNREPLICPLCRSKWRSHDFYSHELSSPVDSPSSLRAAQQQTVQQQPLAGSRRNQESNFNLTHYGTQQIPPAYKDLAEPWIQVFGMELVGCLFSRNWNVREMALRRLSHDVSGALLLANGESTGNSGGSSGSSPSGGATSGSSQTSISGDVVEACCSVLSMVCADPVYKVYVAALKTLRAMLVYTPCHSLAERIKLQRLLQPVVDTILVKCADANSRTSQLSISTLLELCKGQAGELAVGREILKAGSIGIGGVDYVLNCILGNQTESNNWQELLGRLCLIDRLLLEFPAEFYPHIVSTDVSQAEPVEIRYKKLLSLLTFALQSIDNSHSMVGKLSRRIYLSSARMVTTVPHVFSKLLEMLSVSSSTHFTRMRRRLMAIADEVEIAEAIQLGVEDTLDGQQDSFLQASVPNNYLETTENSSPECTVHLEKTGKGLCATKLSASSEDISERLASISVGPSSSTTTTTTTTEQPKPMVQTKGRPHSQCLNSSPLSHHSQLMFPALSTPSSSTPSVPAGTATDVSKHRLQGFIPCRIPSASPQTQRKFSLQFHRNCPENKDSDKLSPVFTQSRPLPSSNIHRPKPSRPTPGNTSKQGDPSKNSMTLDLNSSSKCDDSFGCSSNSSNAVIPSDETVFTPVEEKCRLDVNTELNSSIEDLLEASMPSSDTTVTFKSEVAVLSPEKAENDDTYKDDVNHNQKCKEKMEAEEEEALAIAMAMSASQDALPIVPQLQVENGEDIIIIQQDTPETLPGHTKAKQPYREDTEWLKGQQIGLGAFSSCYQAQDVGTGTLMAVKQVTYVRNTSSEQEEVVEALREEIRMMSHLNHPNIIRMLGATCEKSNYNLFIEWMAGGSVAHLLSKYGAFKESVVINYTEQLLRGLSYLHENQIIHRDVKGANLLIDSTGQRLRIADFGAAARLASKGTGAGEFQGQLLGTIAFMAPEVLRGQQYGRSCDVWSVGCAIIEMACAKPPWNAEKHSNHLALIFKIASATTAPSIPSHLSPGLRDVALRCLELQPQDRPPSRELLKHPVFRTTW |
